T1: human PACAP38 (human, not fully specified; C-terminal lysine is amidated; N-terminal or C-terminal biotin in the HTRF and PC-12 cell binding assays)
T1 construct: synthetic peptide, bought; also called huPACAP (1-38)
T1 peptide: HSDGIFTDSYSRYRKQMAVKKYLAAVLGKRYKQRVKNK

T2: human PACAP27 (human, C-terminal leucine is amidated; 125I-labelled in Example 10)
T2 peptide: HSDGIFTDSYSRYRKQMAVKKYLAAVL

T3: human VIP (human)
T3 construct: also called Vasoactive Intestinal Peptide
T3 peptide: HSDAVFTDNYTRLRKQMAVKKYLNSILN


Tests used:
human PACAP38 [1] = target: T1, human PACAP38; experiment: SPR, Ab immobilised
Method: (§1) Binding affinities of monoclonal antibodies for human PACAP were estimated using SPR on the PROTEON™ XPR36 (Bio-Rad, Hercules, Calif.). Antibody was immobilized to the surface of general amine coupling (“GLC” or “GLM”) Chips (Bio-Rad, Hercules, Calif.). A dilution series of human PACAP38 (SEQ ID NO: 1241) prepared in 1×PBST Buffer (4.3 mM Na Phosphate, 1.4 mM K Phosphate, 135 mM NaCl, 2.7 mM KCl 0.05% Polysorbate-20) purchased from Teknova (Cat# P1192, Teknova, Hollister, Calif.) and supplemented with 0.25 M arginine (from J.T. BAKER®), 0.2 mg/ml BSA (Jackson Immuno Research Labs, West Grove, Pa.), and 0.005% sodium azide (VWR International, Radnor, Pa.) with the pH adjusted to 7 was used to query the antibodies. Antigen (ranging from 1.23 nM to 100 nM) was typically run sequentially with association times of 2-4 minutes and dissociation times of 3-120 minutes grouped with the PROTEON™ Manager Software (v3.1.0.6 (Bio-Rad, Hercules, Calif.)) and fitted using a 1:1 Langmuir binding model. Surfaces were regenerated between analyte queries using 0.85% Phosphoric Acid.

human PACAP27 [2] = target: T2, human PACAP27; experiment: SPR, Ab immobilised
Method: [The procedure below names another target; the source says it served here with some conditions changed.] as §1

human VIP = target: T3, human VIP; experiment: SPR, Ab immobilised
Method: [The procedure below names another target; the source says it served here with some conditions changed.] as §1

human PACAP38 [3] = target: T1, human PACAP38; experiment: cell-based or functional assay
human PACAP27 [4] = target: T2, human PACAP27; experiment: cell-based or functional assay
human PACAP38 [5] = target: T1, human PACAP38; experiment: cell-based or functional assay
human PACAP38 [6] = target: T1, human PACAP38; experiment: cell-based or functional assay
human PACAP38 [7] = target: T1, human PACAP38; experiment: HTRF binding, biotin-PACAP38
Method: In parallel, 10 μl of an antibody dilution series (highest final concentration of 100 nM) were incubated with 10 μl of N-terminal or C-terminal biotinylated PACAP38 (35 nM final) alone, or in combination with either PACAP27 (350 nM final) or VIP (350 nM final), i.e., 10× PACAP27 or 10×VIP, respectively, in a HTRF plate. 20 μl of Eu³⁺ cryptate labeled anti-hu Fc donor and 20 μl of d2-labeled streptavidin acceptor were added to each well and incubated for 1 hour at room temperature. Fluorescence was measured at 620 and 665 nm with a delay of 300 μsec.
EC₅₀ values, i.e. the concentration of an antibody that yields a response halfway between the baseline and the maximum value within a specified time period, were computed for each antibody based upon their binding curves and are shown in Table 1 below. […] A humanized form of antibody Ab1 was produced and is identified by an appended “.H”, i.e., Ab1.H, and it also bound PACAP38 with high affinity.

human PACAP38 [8] = target: T1, human PACAP38; experiment: inhibition of 100 nM biotin-PACAP38 binding to PC-12 cells, TRF
Method: To identify antibodies that block PACAP38 binding to PAC1-R-expressing cells, adherent PC-12 cells (ATCC, Manassas, Va.) expressing PAC1-R were used in a Europium-based PAC1-R expressing cells binding assay.
Antibody solutions were incubated with N-terminal biotinylated PACAP38 at 10× the final concentration (100 nM or 30 nM) for 1 hr, then added to PC-12 cells that were plated 24 hrs. prior in black clear bottom 96 well plates (COSTAR™, Corning Incorporated, Corning, N.Y.) and further incubated for 1 hr at room temperature. After three washes, the cells were incubated with 20 μl Europium-labeled streptavidin (PerkinElmer, Waltham, Mass.) for 1 hr at room temperature. Cells were washed three times, then 20 μl DELFIA® Enhancement solution (PerkinElmer, Waltham, Mass.) was added to each well and incubated for 15 minutes with gentle shaking. Plates were read (Time Resolved Fluorescence (“TRF”)) on SPECTRAMAX® (Molecular Devices, Sunnyvale, Calif.) plate reader.
FIGS. 14A-14BB are representative of the inhibition curves obtained by this method (results are shown for Ab1, Ab2, Ab3, Ab4, Ab5, Ab6, Ab7, Ab8, Ab9, Ab10, Ab11, Ab12, Ab13, Ab14, Ab15, Ab16, Ab17, Ab18, Ab19, Ab1.H, Ab10.H, Ab22, Ab23, Ab3.H, Ab4.H, Ab5.H, Ab9.H, and Ab12.H, respectively) wherein the PAC1-R expressing cells were PC-12 cells.

Kd (human PACAP38 [1]) [nM]	koff (human PACAP38 [1]) [s⁻¹]	kon (human PACAP38 [1]) [M⁻¹ s⁻¹]	Kd (human PACAP27 [2]) [nM]	koff (human PACAP27 [2]) [s⁻¹]	kon (human PACAP27 [2]) [M⁻¹ s⁻¹]	Kd (human VIP) [nM]	koff (human VIP) [s⁻¹]	kon (human VIP) [M⁻¹ s⁻¹]	IC50, 0.1 nM PACAP38-induced PAC1-R mediated cAMP increase (human PACAP38 [3]) [pM]	IC50, 0.1 nM PACAP27-induced PAC1-R mediated cAMP increase (human PACAP27 [4]) [pM]	IC50, 5 nM PACAP38-induced human VPAC1-R mediated cAMP increase (human PACAP38 [5]) [pM]	IC50, 1 nM PACAP38-induced human VPAC2-R mediated cAMP increase (human PACAP38 [6]) [pM]	EC50 (human PACAP38 [7]) [nM]	IC50 (human PACAP38 [8]) [nM]	Binder
≤ 0.041	≤ 1e-05	240000	0.096	2.4e-05	250000	7200	0.86	120000	327	353	721	239	0.6	16.3	anti-PACAP antibody Ab5 (antibody, human IgG1, kappa, N297A, V domains shown, full-length rabbit/human chimeric antibody) VH: QSVEESGGRLVTPGTPLTLTCTVSGFSLSSYAMIWVRQAPGKGLEWIGIIYDNGDTYYASWAKGRFTISKTSTTVYLKIASPTTEDTATYFCAREPGSTTQNDLWGQGTLVTVSS VL: DVVMTQTPASVSEPVGGTVTIKCQASENIYNSLLWYQQKPGQPPKLLIYRASTLASGVSSRFKGSGSGTEFTLTISDLECADAATYYCQNYYNIWTNGAAFGGGTEVVVKR
0.05	2.7e-05	530000	0.17	7.8e-05	470000	820	0.13	160000	162	156	3720	22800	0.62	36.7	anti-PACAP antibody Ab15 (antibody, human IgG1, kappa, N297A, V domains shown, full-length rabbit/human chimeric antibody) VH: QSVEASGGHLVTPGTPLTLTCTVSGFSLSSAAMNWVRQAPGKGLEWIGSVDERQNKYYASWAKGRFTISRTSSTTVNLKMTSPTTEDTATYFCARGGGEFFIWGQGTLVTVSS VL: AQVLTQTPSSVSAAVGGTVTINCQSSQSVYSNNRLSWYQQKPGQPPNLLIYEASSLASGVPSRFSGSGSGTQFTLTISDLECDDAATYYCAGAYNTGIYGFGGGTEVVVKR
0.093	2.5e-05	270000	0.31	0.00013	420000	1000	0.28	280000	101	87.4	827	954	0.43	162	anti-PACAP antibody Ab19 (antibody, human IgG1, kappa, N297A, V domains shown, full-length rabbit/human chimeric antibody) VH: QSVEASGGRLVTPGTPLTLTCTVSGFSLSSATMNWVRQAPGKGLEWIGLIGGNDERYYASWAKGRFTISKTSSTTVDLKMTSPTTEDTATYFCARGGGEFFIWGPGTLVTVSS VL: AQVLTQTPSSVSAAVGGTVTINCQSSESVYTNDRLSWYQQKPGQPPKLLIYEASKLASGVPPRFSGSGSGTQFTLTISDLECDDAATYYCAGAYSTSIHGFGGGTEVVVKR
≤ 0.011	≤ 1e-05	910000	0.035	2.9e-05	820000	260	0.096	360000	212	192	3530	1150	0.68	27.3	anti-PACAP antibody Ab16 (antibody, human IgG1, kappa, N297A, V domains shown, full-length rabbit/human chimeric antibody) VH: QSVEESGGRLVTPGTPLTLTCTVSGFSLSSAAMSWVRQAPGKGLEWIGIIDDSGNTYYASWAKARFTISKTSSTTVDLKMTSPTTEDTATYFCARGGGEFFIWGPGTLVTVSS VL: DPVLTQTPSSVSAAVGGTVTINCQSSQSVYNNKWLSWYQQKPGQSPKFLIYQASNLASGVPSRFKGSGSGTQFTLTISDLECDDGATYYCAGGYRGNVCGFGGGTEVVVKR
≤ 0.02	≤ 1e-05	500000	≤ 0.027	≤ 1e-05	370000	55	0.017	310000	97.7	77.6	780	205	0.46	33.1	anti-PACAP antibody Ab17 (antibody, human IgG1, kappa, N297A, V domains shown, full-length rabbit/human chimeric antibody) VH: QSVEESGGRLVTPGTPLTLTCTVSGFSLSSAAMNWVRQAPGKGLEWIGIFDPYSSTYYASWAKGRFTISKTSSTTVDLKMTSPTTEDTATYFCARGGGEFFIWGPGTLVTVSS VL: AQVLTQTPSSVSAAVGGTVTINCQSSQSVYKNKYLSWYQQKVGQPPKFLIYQASNLASGVPSRFKGSGSGTQFTLTISDLECDDAATYYCAGGYSGNMVDFGGGTEVVVKR
≤ 0.023	≤ 1e-05	430000	≤ 0.023	≤ 1e-05	440000	400	0.12	310000	118	91.6	911	285	0.48	30.6	anti-PACAP antibody Ab18 (antibody, human IgG1, kappa, N297A, V domains shown, full-length rabbit/human chimeric antibody) VH: QSVEESGGRLVTPGTPLTLTCTVSGFSLSSAALSWVRQAPGKGLEWIGIIDKGVMSYYASWAKGRFTISKTSSTTVDLKVTSPTTEDTATYFCARGGGEFFIWGQGTLVTVSS VL: AQVLTQTPSSVSAAVGGTVTINCQSSKSVYNNNWLSWYQQKPGQPPKFLIYQASNLASGVPSRFKGSGSGTQFTLTISDLECDDAATYYCAGGYSGNIVGFGGGTEVVVKR
0.22	7.2e-05	330000	0.51	0.0002	390000	120	0.021	170000	340	76.9	943	218	0.66	28.6	anti-PACAP antibody Ab4 (antibody, human IgG1, kappa, N297A, V domains shown, full-length rabbit/human chimeric antibody) VH: QSVEESGGRLVTPGTPLTLTCTVSGFSLSSYDMSWVRQAPGKGLEYIGIINTNDDTWYASWVKGRFTISKTSSTTVDLKMTSLTTEDTATYFCARISDAYVFDYAYYFTLWGQGTLVTVSS VL: ALVMTQTPSSVSAAVGGTVTINCLASQNIYNSLAWYQQKPGQPPKLLIYRASTLASGVSSRFKGSGSGTQFTLTISGVECADAATYYCQQGAGADNIGNPFGGGTEVVVKR
